The target in assay [1] is truncated form of the monomeric type IV pilin from P. aeruginosa strain K122-4 [pilA (Δ1-28); ΔK122] (Pseudomonas aeruginosa strain K122-4). Briefly: SEC-MALS; silica-based column, 10 nm pore size, 10 mM Tris pH 7.4; 1 mg·mL^-1 ΔK122 incubated with MPD for 24 hours; Peaks 2-4. Background: SEC sorts molecules by how far they enter the pores of the column.
Assay [2] shares this target. The experiment in a line: SEC-MALS; silica-based column, 10 nm pore size, 10 mM Tris pH 7.4; 1 mg·mL^-1 ΔK122 before incubation with MPD; monomer to dimer.
For assay [3] the target is unchanged. Briefly: SEC-MALS; silica-based column, 10 nm pore size, 10 mM Tris pH 7.4; 1 mg·mL^-1 ΔK122 incubated with MPD for 3 hours; relative peak areas.
Assay [4] shares this target. The experiment in a line: SEC-MALS; silica-based column, 10 nm pore size, 10 mM Tris pH 7.4; 1 mg·mL^-1 ΔK122 incubated with MPD for 72 hours; relative peak areas.
Assay [5] shares this target. Briefly: SEC-MALS; MALS of the SEC-separated Peak 3/4 aliquot of 15 mg·mL^-1 ΔK122 after 24 hours incubation with MPD; signal overload at the detector noted.

Several values for one entry are separate records, joined by “and”; a condition that tells them apart may be missing. Equal entries are not always repeated.

A word on the stoichiometry N: it is a count of units in the complex or per binding partner. As to “truncated form of the monomeric type IV pilin from P. aeruginosa strain K122-4 [pilA (Δ1-28); ΔK122] (domain or fragment)”, the stoichiometry N is 14 and 20 and 40 in assay [1]; 2 in assay [2]; 4040 in assay [5]. This substance also had a percent of total species in the higher molecular weight peaks (before MPD) in assay [2] of 17.5%. In assay [3], the percent of total species in the higher molecular weight peaks (3 hours with MPD) amounted to 55.1%. The same substance had a percent of total protein in the higher molecular weight peaks (72 hours with MPD) in assay [4] of 90%.

Values taken from article PMC3704941.
